The values below come from article PMC12746484, “Growth-coupled selection of 5-aminolevulinic acid synthetase mutants for 5-aminolevulinic acid biosynthesis in Corynebacterium glutamicum” (Frontiers in Microbiology, 2025).

The subject of data set [1] is T1, CC(C)(COP(=O)(O)OP(=O)(O)OC[C@H]1O[C@@H](n2cnc3c(N)ncnc32)[C@H](O)[C@@H]1OP(=O)(O)O)[C@@H](O)C(=O)NCCC(=O)NCCSC(=O)CCC(=O)O.
T1 construct: codon-optimized hemA cloned in pET28a, expressed in E. coli BL21(DE3), Ni-NTA purified
Put plainly: steady-state kinetics, 5-ALA formation, nonlinear Michaelis-Menten fit. It is filed as biochemical, Rhodobacter capsulatus. The following applies: 37 °C, Tris pH 7.5, pyridoxal phosphate, co-substrate glycine, succinyl-CoA 5-150 μM. The source says: (§1) steady-state kinetics, 5-ALA formation, nonlinear Michaelis-Menten fit on ALAS from Rhodobacter capsulatus SB1003 (hemA^Rc; pET28a-SB)

Data set [2] relates to T2, NCC(=O)O.
T2 construct: codon-optimized hemA cloned in pET28a, expressed in E. coli BL21(DE3), Ni-NTA purified
Described as above. It is filed as biochemical, Rhodobacter capsulatus. Conditions: 37 °C, Tris pH 7.5, pyridoxal phosphate, co-substrate succinyl-CoA, glycine 1-40 mM.
Text: as §1

ALAS from Rhodobacter capsulatus SB1003 (hemA^Rc; pET28a-SB) (Rhodobacter capsulatus SB 1003), sequence (chain, as listed by the source): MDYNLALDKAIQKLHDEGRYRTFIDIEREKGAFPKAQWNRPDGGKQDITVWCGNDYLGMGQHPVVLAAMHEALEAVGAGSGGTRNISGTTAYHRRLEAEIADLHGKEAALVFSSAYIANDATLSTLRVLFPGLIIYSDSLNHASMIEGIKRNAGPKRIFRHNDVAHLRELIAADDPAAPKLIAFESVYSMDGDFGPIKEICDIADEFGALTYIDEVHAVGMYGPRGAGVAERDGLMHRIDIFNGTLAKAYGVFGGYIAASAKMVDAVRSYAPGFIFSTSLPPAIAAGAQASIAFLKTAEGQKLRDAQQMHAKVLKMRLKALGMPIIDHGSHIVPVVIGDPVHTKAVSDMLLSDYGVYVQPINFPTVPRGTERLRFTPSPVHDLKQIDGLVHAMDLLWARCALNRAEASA
ALAS from Rhodobacter capsulatus SB1003 (hemA^Rc; pET28a-SB) (Rhodobacter capsulatus SB 1003; E27V/F363Y/G105C), sequence (chain, as listed by the source E27V F363Y G105C): as the sequence (chain, as listed by the source) above, with E27V, G105C, F363Y counted along it

On to “ALAS from Rhodobacter capsulatus SB1003 (hemA^Rc; pET28a-SB) (Rhodobacter capsulatus SB 1003)”, for which, in data set [1], the Km is 17.5 ± 2.65 µM, the kcat was determined as 2.52 ± 0.22 s⁻¹ and the kcat/Km was determined as 140000 ± 30000 M⁻¹ s⁻¹. In addition, in data set [2], the Michaelis constant (Km) worked out at 2660 ± 260 µM, the kcat amounted to 2.52 ± 0.22 s⁻¹ and the kcat/Km worked out at 950 ± 230 M⁻¹ s⁻¹.

“ALAS from Rhodobacter capsulatus SB1003 (hemA^Rc; pET28a-SB) (Rhodobacter capsulatus SB 1003; E27V/F363Y/G105C)”: in data set [1], the Km was 16.88 ± 2.21 µM, the kcat came to 2.94 ± 0.15 s⁻¹ and the kcat/Km is 170000 ± 20000 M⁻¹ s⁻¹. For the same substance, in data set [2], the Km turned out to be 2130 ± 220 µM, the kcat stood at 2.94 ± 0.15 s⁻¹ and the kcat/Km was determined as 1270 ± 180 M⁻¹ s⁻¹.
